The record followed here is patent publication US20090029376.

Test in all cases: cleavage_in_vitro
Data set [1] deals with T1, BstXI (Bacillus stearothermophilus).
T1 sequence: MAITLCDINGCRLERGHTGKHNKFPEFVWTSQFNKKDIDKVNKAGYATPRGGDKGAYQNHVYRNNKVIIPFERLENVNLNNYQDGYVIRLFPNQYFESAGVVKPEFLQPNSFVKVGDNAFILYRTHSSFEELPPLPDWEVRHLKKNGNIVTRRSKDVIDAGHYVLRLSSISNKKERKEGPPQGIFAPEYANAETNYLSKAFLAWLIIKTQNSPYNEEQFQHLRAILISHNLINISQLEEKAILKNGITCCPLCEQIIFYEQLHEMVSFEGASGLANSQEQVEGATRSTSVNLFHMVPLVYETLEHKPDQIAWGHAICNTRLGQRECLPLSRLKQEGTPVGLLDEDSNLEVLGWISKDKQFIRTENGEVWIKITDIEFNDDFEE
The following applies: NEB4, 55 C; Table 2 prints 4.

Data set [2] has as its system T2, SspI (Sphaerotilus species).
T2 sequence: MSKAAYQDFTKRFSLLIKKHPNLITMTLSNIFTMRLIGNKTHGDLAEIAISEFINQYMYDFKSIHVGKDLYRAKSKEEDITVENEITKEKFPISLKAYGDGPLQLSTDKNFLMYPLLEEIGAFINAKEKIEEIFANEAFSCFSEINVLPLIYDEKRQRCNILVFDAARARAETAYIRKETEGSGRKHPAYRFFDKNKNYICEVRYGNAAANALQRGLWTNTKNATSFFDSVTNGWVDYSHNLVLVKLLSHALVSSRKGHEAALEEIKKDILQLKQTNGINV
The note with it: NEB4, 37 C.

Data set [3] relates to T3, SbfI-HF K251A (Streptomyces species Bf-6).
T3 sequence: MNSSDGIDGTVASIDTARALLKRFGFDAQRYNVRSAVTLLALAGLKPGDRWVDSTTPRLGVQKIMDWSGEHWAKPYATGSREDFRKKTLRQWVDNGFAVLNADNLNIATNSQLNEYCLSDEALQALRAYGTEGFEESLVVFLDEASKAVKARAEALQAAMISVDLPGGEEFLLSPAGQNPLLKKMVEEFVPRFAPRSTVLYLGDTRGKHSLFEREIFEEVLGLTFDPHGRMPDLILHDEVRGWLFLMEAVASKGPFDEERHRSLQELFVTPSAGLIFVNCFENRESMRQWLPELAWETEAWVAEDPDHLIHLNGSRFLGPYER
The following applies: NEB4, 37 C.

Data set [4] concerns T4, BspQI (Bacillus sphaericus).
T4 sequence: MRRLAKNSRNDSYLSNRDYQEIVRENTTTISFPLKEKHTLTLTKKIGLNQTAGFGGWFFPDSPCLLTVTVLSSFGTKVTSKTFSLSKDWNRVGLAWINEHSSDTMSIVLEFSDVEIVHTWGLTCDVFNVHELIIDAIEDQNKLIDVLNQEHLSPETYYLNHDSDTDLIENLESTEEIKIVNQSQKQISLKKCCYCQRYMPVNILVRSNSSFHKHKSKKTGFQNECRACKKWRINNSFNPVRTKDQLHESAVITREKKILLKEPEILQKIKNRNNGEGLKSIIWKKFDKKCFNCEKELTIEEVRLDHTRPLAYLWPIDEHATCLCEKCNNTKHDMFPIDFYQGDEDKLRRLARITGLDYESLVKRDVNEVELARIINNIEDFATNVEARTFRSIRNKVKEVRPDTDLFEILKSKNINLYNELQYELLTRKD
The following applies: NEB4, 50 C.

Data set [5] deals with T5, NcoI (Nocardia corallina).
T5 sequence: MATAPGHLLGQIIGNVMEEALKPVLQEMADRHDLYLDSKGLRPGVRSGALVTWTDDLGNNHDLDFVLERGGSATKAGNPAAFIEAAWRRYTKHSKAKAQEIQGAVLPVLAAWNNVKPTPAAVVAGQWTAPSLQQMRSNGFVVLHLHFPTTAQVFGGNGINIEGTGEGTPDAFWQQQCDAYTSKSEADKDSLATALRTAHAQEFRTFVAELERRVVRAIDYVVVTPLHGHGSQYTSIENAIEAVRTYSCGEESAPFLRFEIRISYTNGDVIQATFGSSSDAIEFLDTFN
The note with it: NEB4, 37 C.

In data set [6] the target is T6, BamHI-HF E163A/E167T (Bacillus amyloliquefaciens) (UniProt P23940).
T6 sequence: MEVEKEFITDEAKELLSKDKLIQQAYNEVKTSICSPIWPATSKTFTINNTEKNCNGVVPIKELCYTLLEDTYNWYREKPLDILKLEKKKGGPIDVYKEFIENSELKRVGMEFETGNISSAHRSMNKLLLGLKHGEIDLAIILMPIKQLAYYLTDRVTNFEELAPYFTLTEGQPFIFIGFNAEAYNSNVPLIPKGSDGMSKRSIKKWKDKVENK
The following applies: NEB4, 37 C.

Regarding lambda phage DNA, the activity (fidelity index) in data set [1] is 32; in data set [2] it was 16; in data set [3], 250; in data set [4], 4; in data set [5] it was 32; in data set [6], more than 4000.
